According to publication PMC9486129 (2022):
Where no end group is shown, it is not given here. [ ]: non-standard residue; d: D form. pY = N[C@@H](Cc1ccc(OP(=O)(O)O)cc1)C(=O)O

T1: ZAP-70 tSH2 WT (1–256)
T1 chain: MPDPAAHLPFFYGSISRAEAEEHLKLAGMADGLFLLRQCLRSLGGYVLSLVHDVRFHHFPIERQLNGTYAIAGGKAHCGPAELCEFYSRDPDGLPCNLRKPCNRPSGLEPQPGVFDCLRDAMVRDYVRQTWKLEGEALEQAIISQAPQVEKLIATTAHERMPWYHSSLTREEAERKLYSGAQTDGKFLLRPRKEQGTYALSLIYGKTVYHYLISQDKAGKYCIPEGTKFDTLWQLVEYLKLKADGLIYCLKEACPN


How the values were obtained:
ITAM-Y2P-ζ3 ITAM3 = ITAM-Y2P-ζ3 ITAM3 (Homo sapiens, UniProt P20963, doubly phosphorylated ITAM)
ZAP-70 tSH2 WT (1–256) [1] = target: T1, ZAP-70 tSH2 WT (1–256); assay: Kd1, first site (intrinsic fluorescence titration)
ZAP-70 tSH2 WT (1–256) [2] = target: T1, ZAP-70 tSH2 WT (1–256); assay: ITC; Kd2, second site

ITAM-Y2P-ζ3 ITAM3, sequence (P20963 128-162): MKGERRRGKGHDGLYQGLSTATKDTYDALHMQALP

Kd (ITAM-Y2P-ζ3 ITAM3) | Kd (ZAP-70 tSH2 WT (1–256) [1]) | Kd (ZAP-70 tSH2 WT (1–256) [2]) | Binder
6.8 nM | – | – | ZAP-70 C-SH2 (protein) WYHSSLTREEAERKLYSGAQTDGKFLLRPRKEQGTYALSLIYGKTVYHYLISQDKAGKYCIPEGTKFDTLWQLVEYLKLKADGLIYCLKEAC
– | 4.5 nM | 9800 nM | NQL[pY]NELNLGRRAE[pY]DVLD [ITAM-Y2P-ζ1 E13A]
